The DeepSol protein solubility set

Experiment: soluble on expression in E. coli; label from the status in PepcDB or PDB records

Sequence | soluble on expression in E. coli
MAKKIVIIGAGAGGGISLSKLRRVLKDEDVDITIIDKLGRTDFQPSYIFLSIGQKRVKDLSRDFNLLNGGHVKTVKDEVVSVDAQNRIVNTLKGKYSYDYLIMSPGPDIKKDSFEGIEATDSVWTLEDSLKLRAKIKEFNGGKILISVSSQWYKCPPVPWEMALLLDDYFRKKNMRDKVEITVAHPVSKPMEMYGPGLSDPFAKMLEKRSIGGLYGKKLLGIDASKKEAVFEDDDRLRFDLSIVAPPHSPPSFIKDNEYLRSKNGWASTNLKDFRNPKYDDIFAIGDVIAPTIQIGMAGVLAHFQADTASSAIAEDIIGYPFIDYNKNAVCIIATGSSGVFSYCDLSAKLTDPSVKFPECRMIGNDPLFRFAHDLYEVNFLSSIYGNRLEHHHHHH | not soluble
MAKKLLLVGGGHSNALVLKHWCRHPLADVELTLVSDVRQTPYSGMLPGYLAGFYSYGESHIDLAPLCASAGAIFVQDKAIAVNPEQNLLTTAEGRQLSFDCLSLDIGSTPFIDDIVGAEYGIPAKPVPQFLTAWLALLENIDQNRPKKVTLAIAGGGAGGVELAFNLQARLAKLFPAMGLDMQIWQRGAILLPHHSVQGRKLIERLLVKQNIAVLLNHPVTSIEPEFSPDDNPLTCYKLWSNDHWQSVNAVFLVTQASPAPWLAQSGLSLDSRGFVSVKPTLQSYSHGHIFAAGDVANMIDHPRPKAGVFAVRQGKPLFENLQHYLSHQTLKTFVPQSKYLSLLGTRDGRAIALWGPWASYGHCWWRLKDYIDRQFMAGFSA | soluble
MAKLTALTLLGMGLALFDRQKSSFQTRFNVHREVTPVELPNCNLVKGIDNGSEDLEILPNGLAFISSGLKYPGIMSFDPDKSGKILLMDLNEKEPAVSELEIIGNTLDISSFNPHGISTFIDDDNTVYLLVVNHPGSSSTVEVFKFQEEEKSLLHLKTIRHKLLPSVNDIVAVGPEHFYATNDHYFIDPYLKSWEMHLGLAWSFVTYYSPNDVRVVAEGFDFANGINISPDGKYVYIAELLAHKIHVYEKHANWTLTPLRVLSFDTLVDNISVDPVTGDLWVGCHPNGMRIFFYDAENPPGSEVLRIQDILSEEPKVTVVYAENGTVLQGSTVAAVYKGKLLIGTVFHKALYCDL | soluble
MAKPIMAKATAVWLVDNTTLSFKQIADFVGMHELEVQGIADGDVAQGVKGFDPIANNQLTQDEIDTAQNNPLHKLKLKFNAAAQGEEKRRGPRYTPLSKRQDRPASILWLVKFHPELTDGQISKLIGTTKPTIQAIRERTHWNISNIQPIDPVALGLCKQSELDMAVQKAAAKKAADAPVMLEHHHHHH | soluble
MAKPVVIGSRSFRTQSSALDHYKALLHRYQDGQRIADPADHTDLVALIERFDPVLDAVGEPAKGAGQIAHFERRLNTGIGWSTPGFWVVRQDGTETDFSYIDAVKGRPKGRSQDFYNACRQAVALDLVLAKKQAFAQYGDDQGRVECELTGKMVTIDDAHLDHAWPYFSHMVSGFRAARGWSRDIPDGIVSTPADGQTTATFLDSAVTEAFRAFHHDQAVLRVLSREANLQTASSARRPKVARPVRLALEHHHHHH | soluble
MAKRQQRSNKPSSEYTCLGHLVNLIPGKEQKVEITNRNVTTIGRSRSCDVILSEPDISTFHAEFHLLQMDVDNFQRNLINVIDKSRNGTFINGNRLVKKDYILKNGDRIVFGKSCSFLFKYASSSSTDIENDDEKVSSESRSYRSHHHHHH | soluble
MAKRVPNMELFVFCEDLEFTQNLDLGYPFMDMTTRDKEEEAYWDMLLMQSCQHGIIANSTYSWWAAYLIENPEKIIIGPKHWLFGHENILCKEWVKIESHFEVKSQKYNALEHHHHHH | soluble
MAKSRLLLSELLDQLSFALCIVRNDYVIVKVNEYFESRVIFDGETMQGKNILELFPESADYLKRKIDTALVIESSSFSSWEQKPHLLPFKSSRPVSGEEEQMYQNLEVIPIHSEDGTIEHVCLCVYDVTIQASQQQELKRVSQKLEEEHQSQKVLIKKLEDAQGQLIQSEKMASIGQLSAGIAHEINNPVGFITSNLQTLSDYFNSLEKVLKSITQTIGQSKDTALNEACQKILKQGQVDFILEDTAELITESLEGSSRVMSIVKNLKEFSHVDRSEWSYANLENCIESTLKIINNEIKYNITLEKHYAANVPDVFCQPMQINQVLLNILVNASHAIKGEGTITITLQSAGDDFVEIHIRDTGCGIPEEIRERIFEPFFTTKPVGSGTGLGLSVSYGIINKHNGTISVTSEVGKGSEFTIRLPVNPSAEAVDNTDAKAM | not soluble
MAKVRETYVCSACGANTPQWRGQCPTCKAWNTLDAVTVARETRSGVRRQGAPDSVRPRPLRDVSDEGGSPFGTGLEALDRVLGSGLVPGAAILFGGEPGIGKSTLLLQVAGAVAASGRDVLYLSGEESLTQLKGRAERLGVLHERLLAVATSRVEDVFSVLESGTPPALLVLDSVQTLTSDLAEGLPGNVSQVRAVATEVVDRCKRAGTAVLLVGHVTKDGNLAGPRLLEHMVDTVVSLEGDRRQMFRLLRVLKNRFGPNQELLVFQMAQRGLEVVEDPSTFFLGARDPALSGTAVVMAVDGQRPFAVEVQALVTRSYLAIPRRTGLGFDVNRLHLLLAVLEKRLRLNFGQVDIYAKIGGGMRLQDPGMDLALVAAVLSSFYDVALPERAVLWGEVDLNGQVRPVAAHDIRLGQAARLGYGPVLHPGEGRGAVPTVVELQARLFGKSGAPRHNPSELEHHHHHH | not soluble
MAKYQSMLVVIDPNQDDQPALRRAVYLHQRIGGRIKAFLPIYDFSYEMTTLLSPDERTAMRQGVIAQRTAWIREQAKFYLESGVPIDVKVVWHNRPFEAIIQEVVSEKHDLLLKMAHQHDKLEAVIFTPTDWHLLRKCPCPVWMVKDQPWPEGGKALVAVNLASEENYHNTLNEKLVRETLSLAEEVNHTEVHLIGAYPVTPINIAIELPDFDPSVYNDAIRGQHLLAMKALRQKFGIDEKFTHVEKGLPEEVIPDLAEHLQAGIVVLGTVGRTGLSAAFLGNTAEQVVDHLRCDLLVLKPEAYQTPVELDDDDDD | not soluble
MAKYTRDDILAQAKQLAKMIAETEEVDFFKRAEEKIHQNEKVRTLINELKSLQKQAVNLQHYGKHEALKQVEAKIDAIYEELSQIPIVSEFQQSQSDVNDLLQLVASTISNTVTDEILASTGGDVLRGETGAALRYNKHGGCH | not soluble
MALEKLLKVQERLWAPEDLRKKANLQDYAAEYRKSLEDPEGFWGAWARRFHWEKPFEKVLEWTLPEHRWFLGGTTNAVYNALERNVERGLRNKVALLYLAEDGREEKLTYGELLDRVRRLATGLRRLGVGKGDRVVIYMPLTLEGVLAMLATAYIGAIHSVVYAGLGVSALRERILDAQAKLLIAGDVSFRRGKGVDLRSIAEEAIRDLPLKVVWFQRAYKAELAEGHYDFHELLWGNPPEARAEMVDAEHPLFILYTSGSTGKPKGVVHVHGGYMVGTTYHLRTFFDVKDEDVFWATSDIGWIVGHSYIVYAPLLEGITSVLREGAPDHPDPGALWQAVERYRVNVMFTAPTAVRMFMKYGPEWPRKYDLSSLRLLAVAGEPLNPEALKWAYEHLVDGGRRGFVADNWWQTELGGPTLGTPLVLPAKPGFAGVALPGVEAEVVDEEGRPVPPGQGGLLVLKRPFPHMMRTVWGNHERYLRYWQEVPGGVYASGDVASKDEEGYFSVLGRADDVLNVAGHRIGTADVESALVSHPAVAEAAVIGVPDPLKGEAIKAFVVLRLGQTPSEELKEALVQHVRRELGPIATPSEVVFLDKLPKTRSGKILRRLLKAQALGKDPGDLSTLEE | soluble
MALIEKNTQFDADKLTANVVGIAADVGKHDSGMHQHHKGQLLYAPQGCMTFALNDSICILPPTKAVWIPPHTPHRAVMTNVVAYRSVYFDCDKFSCPKSIVMIEVNDLLKALINKMALWEWDIEQTKTNATTILFWEEFYQAKQFELTLPLPSDRRLASFRNAMTKDGFIAPD | not soluble
MALKATIYKATVNVADLDRNQFLDASLTLARHPSETQERMMLRLLAWLKYADERLQFTRGLCADDEPEAWLRNDHLGIDLWIELGLPDERRIKKACTQAAEVALFTYNSRAAQIWWQQNQSKCAQFANLSVWYLDDEQLAKVSAFADRTMTL | not soluble
MALKKHNVFVFSSNYTLYGDMSQRVMNTLAEFTPEIEVYSIDESFLNFEGFELLGDLKIYGTTIRNTVFRNTGIPVSIGIAPTKALAKLSNRIAKKNKEYNHVCVLEHHHHHH | not soluble
MALLWQLARNAEGDDPTNLESALIGKPVPKFRLESLDNPGQFYQADVLTQGKPVLLNVWATWCPTCRAEHQYLNQLSAQGIRVVGMNYKDDRQKAISWLKELGNPYALSLFDGDGMLGLDLGVYGAPETFLIDGNGIIRYRHAGDLNPRVWEEEIKPLWEKYSKEAAQ | soluble
MALPGERFHVLAQLEHLQSKYTGTAMRHEPSRMDCESAPRHSRLSNVSSRNEHVYCRCGEREPSSNPLQSDKSHDSAVWTASREESS | not soluble
MALSAEGSSGGSRGGSPKAEAASVPSWPQILGRLTDNRDLARGQAAWAMDQIMTGNARPAQIAAFAVAMTMKAPTADEVGELAGVMLSHAHPLPADTVPDDAVDVVGTGGDGVNTVNLSTMAAIVVAAAGVPVVKHGNRAASSLSGGADTLEALGVRIDLGPDLVARSLAEVGIGFCFAPRFHPSYRHAAAVRREIGVPTVFNLLGPLTNPARPRAGLIGCAFADLAEVMAGVFAARRSSVLVVHGDDGLDELTTTTTSTIWRVAAGSVDKLTFDPAGFGFARAQLDQLAGGDAQANAAAVRAVLGGARGPVRDAVVLNAAGAIVAHAGLSSRAEWLPAWEEGLRRASAAIDTGAAEQLLARWVRFGRQILEHHHHHH | soluble
MALSEQSKDLSDPNFAAEAPNSEVHSSPGVSEGVPPSATLAEPQSPPLGPTAAPQAAPPPQAPNDEGDPKALQQAAEEGRAHQAPSAAQPGPAPPAPAQLVQKAHELMWYVLVKDQKKMIIWFPDMVKDVIGSYKKWCRSILRRTSLILARVFGLHLRLTSLHTMEFALVKALEPEELDRVALSNRMPMTGLLLMILSLIYVKGRGARESAVWNVLRILGLRPWKKHSTFGDVRKLITEEFVQMNYLKYQRVPYVEPPEYEFFWGSRASREITKMQIMEFLARVFKKDPQAWPSRYREALEEARALREANPTAHYPRSSVSEGHHHHHH | soluble
MALSILFLSIASLTLSSSLIIDHYFHLSFLRNPLKSQSGGGKMKPKVFITREIPEVGIKMLEDEFEVEVWGDEKEIPREILLKKVKEVDALVTMLSERIDKEVFENAPKLRIVANYAVGYDNIDIEEATKRGIYVTNTPDVLTDATADLAFALLLATARHVVKGDRFVRSGEWKKRGVAWHPKWFLGYDVYGKTIGIIGLGRIGQAIAKRAKGFNMRILYYSRTRKEEVERELNAEFKPLEDLLRESDFVVLAVPLTRETYHLINEERLKLMKKTAILINIARGKVVDTNALVKALKEGWIAGAGLDVFEEEPYYNEELFKLDNVVLTPHIGSASFGAREGMAELVAKNLIAFKRGEIPPTLVNREVIKIRKPGFE | soluble
MALSKLNHLYMAVVADHSKRPHHHGQLDGVEAVQLNNPTCGDVISLTVKFDEDKIEDIAFAGNGCTISTASSSMMTDAVIGKSKEEALALADIFSEMVQGQENPAQKELGEAELLAGVAKFPQRIKCSTLAWNALKEAIKRSANAQHLTDQNVKEGKNV | soluble
MALVVEDIVKNFGEGLSETKVLKGINFEVEQGEFVILNGASGSGKTTLLTILGGLLSQTSGTVLYNDAPLFDKQHRPSDLRLEDIGFIFQSSHLVPYLKVIEQLTLVGQEAGMTKQQSSTRAIQLLKNIGLEDRLNVYPHQLSGGEKQRVAIMRAFMNNPKIILADEPTASLDADRATKVVEMIRQQIKEQQMIGIMITHDRRLFEYADRVIELEDGKITD | not soluble
MAMDTIAFAYMGGKEYEWLFFEVYDRVRRFYRDVRLPINIVYAGKIILPPGTLIRVETASGFVNMYSFEAVVEALYGKLVEMRDDVNDDSITKIFGITTFPIGSRDRYFDIYKKYLGIQVNVGDYHVLALSIKPFFTENKYLFIERVFKGVLHEIGHLYGLSHCHEDCVMNPPKDIKDWDLRTPTYCNTCLRKLKNKEELMPKLQLLEHHHHHH | not soluble
